According to patent US20240109967A1:
Several values for one entry are separate records, joined by “and”; a condition that tells them apart may be missing. Equal entries are not always repeated. Where two headings read alike, the source gives them in different places.

Columns and labels:
[1] = molecular target: feline CTLA-4 in feline CD5+ leucocytes (feline) (UniProt Q9XTA1); assay: flow cytometry, feline PBMC, Surface labeling, anti-HA secondary alone, gated Lymphocytes>Single cells>Live>CD5+
[2] = molecular target: full length canine CTLA-4 on cells (KTδ32.cCTLA-4 cells; canine T cells and regulatory T cells) (canine) (UniProt Q9XSI1)
[3] = molecular target: full length canine CTLA-4 on cells (KTδ32.cCTLA-4 cells; canine T cells and regulatory T cells) (canine) (UniProt Q9XSI1); remark: listed apart in the source
[4] = molecular target: full length canine CTLA-4 on cells (KTδ32.cCTLA-4 cells; canine T cells and regulatory T cells) (canine) (UniProt Q9XSI1); remark: listed apart in the source
[5] = molecular target: feline CTLA-4 in feline CD5+ leucocytes (feline) (UniProt Q9XTA1)
[6] = molecular target: feline CTLA-4 in feline CD5+ leucocytes (feline) (UniProt Q9XTA1); remark: listed apart in the source

% of gated cells in the CTLA4 gate [1] [%] | Substance | % of cells in the CTLA4(HA.APC) gate [2] | % of gated cells in Q5 (CTLA4+ CD4-) [3] | % of gated cells in Q6 (CTLA4+ CD4+) [3] | % of gated cells in the CTLA4 gate [4] | % of gated cells in the CTLA4 gate [5] [%] | % of gated cells in the CTLA4 gate [6] [%]
3.8 | 2nd only (anti-HA secondary alone) |  |  |  |  |  | 
 | irrelevant MERS mAb (antibody) | 4.23% and 1.9% | 0.014% and 4.28% and 0.42% | 0.72% and 5.32% and 0.68% | 8.33% and 0% | 0.5 | 0.13
